± gives the uncertainty stated by the source.

This series can be described thus: self-splicing fitness, log relative to wild type (ln ratio); higher = more splicing; Tetrahymena group I intron in knt gene, E. coli kanamycin selection, DiMSum; sequences stand for … in CUCUCU…GGAGGGAAAAGUUAUCAGGCAUGCACCUGGUAGCUAGUCUUUAAACCAAUAGAUUGCAUCGGUUUAAAAGGCAAGACCGUCAAAUUGCGGGAAAGGGGUCAACAGCCGUUCAGUACCAAGUCUCAGGGGAAACUUUGAGAUGGCCUUGCAAAGGGUAUGGUAAUAAGCUGACGGACAUGGUCCUAACCACGCAGCCAAGUCCUAAGUCAACAGAUCUUCUGUUGAUAUGGAUGCAGUUCACAGACUAAAUGUCGGUCGGGGAAGAUGUAUUCUUCUCAUAAGAUAUAGUCGGACCUCUCCUUAAUGGGAGCUAGCGGAUGAAGUGAUGCAACACUGGAGCCGCUGGGAACUAAUUUGUAUGCGAAAGUAUAUUGAUUAGUUUUGGAGUACUCGUGGUCG
Put shortly: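 Library with all eight P1ex-region intron nucleotides randomised, intron inside the knt kanamycin-resistance gene on pET-22b(+), in E. coli BL21(DE3). Cells grew overnight at 37°C or 30°C on LB agar with or without 25 μg/mL kanamycin (plus 100 μg/mL carbenicillin, 50 μM IPTG, 0.2% rhamnose), in six replicate transformations. Pooled colonies were amplicon-sequenced on Illumina HiSeq 2500. DiMSum fitness is the error-weighted combination of wild-type-normalised replicate fold changes, kanamycin versus none.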

For UUGCAGCAAUAUUACGAUUA, the “self-splicing fitness (ln)” value was -0.176 ± 0.12 (30 °C) and 0.339 ± 0.087 (37 °C).
The matching figures for UCCGAGCAAUAUUACGGUGU: -1.74 ± 0.1 and -2.28 ± 0.17.
The matching figures for GGAUAGCAAUAUUACGUUCU: -1.88 ± 0.15 and -2.27 ± 0.24.
For the sequence AUCCAGCAAUAUUACGUUAC, the “self-splicing fitness (ln)” value is, setting by setting: (30 °C) -3.89 ± 0.24; (37 °C) -2.59 ± 0.22.
Taken in the same sequence, the figures for AGAUAGCAAUAUUACGGAGC were -3.24 ± 0.29 and -1.5 ± 0.28.
In the case of GUCAAGCAAUAUUACGAAGC, the “self-splicing fitness (ln)” value by setting is: (30 °C) -3.84 ± 0.27; (37 °C) -2.54 ± 0.2.
Turning to GCGAAGCAAUAUUACGGAUU, the “self-splicing fitness (ln)” value is -1.33 ± 0.13 (30 °C) and -1.17 ± 0.15 (37 °C).
The matching figures for UACAAGCAAUAUUACGCCAU: -3.15 ± 0.17 and -2.62 ± 0.22.
For CGCAAGCAAUAUUACGAGAA, the “self-splicing fitness (ln)” value (37 °C) is -2.03 ± 0.42.
Turning to GAGGAGCAAUAUUACGUAGA, the “self-splicing fitness (ln)” value is -4 ± 0.24 (30 °C) and -2.22 ± 0.19 (37 °C).
The matching figures for UUCAAGCAAUAUUACGCUUC: -3.09 ± 0.22 and -2.8 ± 0.44.
For the sequence UUGUAGCAAUAUUACGACGC, the “self-splicing fitness (ln)” value reads like this: (30 °C) -2.8 ± 0.44; (37 °C) -0.663 ± 0.36.
Taken in the same sequence, the figures for CGAUAGCAAUAUUACGUGCU were -3.92 ± 0.34 and -1.34 ± 0.17.
For ACAAAGCAAUAUUACGUACU, the “self-splicing fitness (ln)” value is -0.16 ± 0.049 (30 °C) and -0.0261 ± 0.072 (37 °C).
Taken in the same sequence, the figures for UUUCAGCAAUAUUACGUAUC were -1.71 ± 0.14 and -1.5 ± 0.14.
The matching figures for GAUCAGCAAUAUUACGAGAG: -1.7 ± 0.082 and -0.506 ± 0.082.
Consider AGAGAGCAAUAUUACGUAGG, for which, under “37 °C”, the “self-splicing fitness (ln)” value was -2.16 ± 0.43.
Take CUCUAGCAAUAUUACGCAGU: the “self-splicing fitness (ln)” value (30 °C) is -4.21 ± 0.24 and the “self-splicing fitness (ln)” value (37 °C) was -4.07 ± 0.23.
Regarding GCUGAGCAAUAUUACGGGAG, the “self-splicing fitness (ln)” value runs as follows: (30 °C) -2.58 ± 0.35; (37 °C) -2.15 ± 0.3.
As for CCGAAGCAAUAUUACGAAGA, the “self-splicing fitness (ln)” value (30 °C) is -3.27 ± 0.39.
As to CGGUAGCAAUAUUACGUGCC, the “self-splicing fitness (ln)” value runs as follows: (30 °C) -1.18 ± 0.14; (37 °C) -4.06 ± 0.34.
Regarding UGAAAGCAAUAUUACGGACC, the “self-splicing fitness (ln)” value reads like this: (30 °C) -0.608 ± 0.13; (37 °C) -0.126 ± 0.16.
Consider GUCUAGCAAUAUUACGAUUC, for which the “self-splicing fitness (ln)” value by setting is: (30 °C) -0.168 ± 0.094; (37 °C) 0.284 ± 0.1.
Taken in the same sequence, the figures for UUAGAGCAAUAUUACGGCUU were -2.83 ± 0.21 and -1.79 ± 0.22.
Taken in the same sequence, the figures for GAGGAGCAAUAUUACGGCGU were -1.72 ± 0.16 and -0.0856 ± 0.14.
With AACUAGCAAUAUUACGAGAC, the “self-splicing fitness (ln)” value (30 °C) is -1.96 ± 0.44.
In the case of UUAAAGCAAUAUUACGAGCC, the “self-splicing fitness (ln)” value was -2.3 ± 0.15 (30 °C) and -1.42 ± 0.27 (37 °C).
For AAAAAGCAAUAUUACGCAAC, the “self-splicing fitness (ln)” value by setting is: (30 °C) -2.16 ± 0.15; (37 °C) -1.99 ± 0.24.
For the sequence GCGGAGCAAUAUUACGCUUC, where the note is “30 °C”, the “self-splicing fitness (ln)” value is -2.09 ± 0.38.
Consider UUAAAGCAAUAUUACGAAAC, for which the “self-splicing fitness (ln)” value (37 °C) is -1.33 ± 0.29.
Take CCAGAGCAAUAUUACGACGA: the “self-splicing fitness (ln)” value was -2.94 ± 0.25 (30 °C) and -2.34 ± 0.3 (37 °C).
Turning to CCCUAGCAAUAUUACGCGGA, the “self-splicing fitness (ln)” value reads like this: (30 °C) -1.29 ± 0.12; (37 °C) -0.827 ± 0.1.
Taken in the same sequence, the figures for CUAGAGCAAUAUUACGCCGU were -2.86 ± 0.32 and -1.99 ± 0.43.
The matching figures for CCGUAGCAAUAUUACGGCUG: -2.46 ± 0.21 and -1.19 ± 0.17.
Taken in the same sequence, the figures for UUCGAGCAAUAUUACGGAGG were -4.27 ± 0.34 and -1.47 ± 0.24.
In the case of ACCGAGCAAUAUUACGUUAC, the “self-splicing fitness (ln)” value (30 °C) was -4.23 ± 0.22 and the “self-splicing fitness (ln)” value (37 °C) was -2.66 ± 0.18.
Taken in the same sequence, the figures for GUCGAGCAAUAUUACGAUUA were 0.373 ± 0.19 and -0.944 ± 0.2.
On to CCGUAGCAAUAUUACGGACG, for which the “self-splicing fitness (ln)” value (30 °C) is -1.88 ± 0.26.
As for UAGUAGCAAUAUUACGCGCC, the “self-splicing fitness (ln)” value reads like this: (30 °C) -2.32 ± 0.28; (37 °C) -0.984 ± 0.23.
As to UCUCAGCAAUAUUACGCUAC, the “self-splicing fitness (ln)” value is, setting by setting: (30 °C) -3.11 ± 0.35; (37 °C) -2.14 ± 0.41.

(Values after the supplement of paper PMC7877785.)
